These results are taken from PMC8902620, “Oligomerization of DNA replication regulatory protein RADX is essential to maintain replication fork stability” (The Journal of Biological Chemistry, 2022).

In data set [1] the target is T1, full-length RADX, wild type, tagged with mCherry-FLAG or with GFP-HA (human, UniProt Q6NSI4 1-855).
T1 construct: RADX (cxorf57), human, full length; Two differently tagged copies of the same protein, written as one molecule; The GFP-HA copy is the one captured on GFP beads in the tests with purified proteins; The mCherry-FLAG copy is the one fished out there, and is the bait of the FLAG co-IP from lysate; also called mCherry-FLAG-RADX; m-Cherry-FLAG-RADX; source: HEK293T, transfected, in lysate; HEK293T, …
The experiment in a line: co-IP; purified mCherry-FLAG proteins mixed with purified GFP-HA-RADX and captured on GFP-trap magnetic agarose beads, 1 h at 4 °C; 50 mM Tris pH 7.5, 250 mM NaCl, 10% glycerol, 0.05% NP-40; immunoblot. The following applies: both partners purified. On the technique in general: Immunoblotting shows a protein as a band on a membrane.

Data set [2] concerns the molecule itself. The experiment in a line: SEC; purified MBP-RADX on Superdex 200 Increase 10/300 GL; peak fractions pooled and reapplied; 50 mM Tris pH 7.5, 300 mM NaCl, 10% glycerol, 1 mM DTT; size by molecular weight standards. On the technique in general: In gel filtration, larger molecules generally elute earlier.

Substitutions are numbered along the chain they refer to.

A word on the stoichiometry N: it is a count of units in the complex or per binding partner.

B1: mCherry-FLAG-RADX domain 5 (744–855) (domain or fragment, human, UniProt Q6NSI4 744-855, looked up)
chain: SARSLGHFEVTILGLNHEIAIDVAFLPMYCPEDIRTSQIDTLLTSMNYSCAYPQDTTGNDRLPGPRAVAGDIIKAATELDRVHIVGILDICNLGNNKVEVYLHKIYSPENTS
notes: also called pTM44; source: HEK293T, purified (anti-FLAG M2 beads, 3x FLAG peptide, Superdex 200)
With B1, in data set [1], the binding result is “binds”.

B2: mCherry-FLAG-RADX N-terminal fragment (2–675) (domain or fragment, human, UniProt Q6NSI4 2-675, looked up)
chain: SGESGQPEAGPSHAGLDWPNPERNRAGVPGGVIRRAGSQGPRSWIQKVLEQIMDSPRQCVTPSEVVPVTVLAVQRYLLEDEPRDTVPKPPLYCYDVTISDGVYQEKCYLDPSLNSLVYQNILKVGIQMRISRVSCLYNEKRIGQGILCIDNVHCGETSDSISLETPFRNRAHQEKPERPLRGGKSHYLALWNNEDPYGDIWLTDKQPEEHNFSDTKIISLSHLEMTWTNRRNFPALLVRILHKSKLRYYGKPDKKMIEPYQTFLEVADSSGTVSVIMWNALCPEWYKSLRVGLVLLLQDYSVKKSYPFRIQPVPVDPQIKLISTMEICLNLRDPPTNIIIIPEKQVKPEWRLPKLNHRFTTRSELDDMPENCICDVIGLLVFVGRVQRSKKKENREDFWSYRWIHIADGTSEQPFIVELFSTSQPEIFENIYPMAYFVCTQLKVVRNDNQVPKLLYLTTTNESGVFITGHRGQPYTYDAKVKNFIQWIRTKSDSGEQKNMVIGGYYPYPPVPETFSKYSSSIKVESLLTAISEVRKEIEDLQYREQKRIAIQGIITAIKYIPHSSATESASASETLRNANRPSTSQAARVEIQERNGKRHQDDEPVNSQYFQTTSTNLSLSNKIRILQGPHANPVAVPQPGASVQTKGIKPGMPSIFNRRANINANLQGKARKT
notes: also called pTM59; source: HEK293T, purified (anti-FLAG M2 beads, 3x FLAG peptide, Superdex 200)
As to B2, the binding result in data set [1] was “binds”.

B3: mCherry-FLAG-RADX C-terminal fragment (675–855) (domain or fragment, human, UniProt Q6NSI4 675-855, looked up)
chain: TISDRWESQLWREKKFGLIDHLHYSRVYPESIPRKFMFEHRKFLSDQYNSQPAKYVPPEGRPPKLDDFKSARSLGHFEVTILGLNHEIAIDVAFLPMYCPEDIRTSQIDTLLTSMNYSCAYPQDTTGNDRLPGPRAVAGDIIKAATELDRVHIVGILDICNLGNNKVEVYLHKIYSPENTS
notes: also called pTM67; source: HEK293T, purified (anti-FLAG M2 beads, 3x FLAG peptide, Superdex 200)
Consider B3, for which, in data set [1], the binding result is reported as “binds”.

B4: MBP-RADX (maltose-binding protein-tagged RADX) (natural protein, human, UniProt Q6NSI4 1-855, looked up)
chain: MSGESGQPEAGPSHAGLDWPNPERNRAGVPGGVIRRAGSQGPRSWIQKVLEQIMDSPRQCVTPSEVVPVTVLAVQRYLLEDEPRDTVPKPPLYCYDVTISDGVYQEKCYLDPSLNSLVYQNILKVGIQMRISRVSCLYNEKRIGQGILCIDNVHCGETSDSISLETPFRNRAHQEKPERPLRGGKSHYLALWNNEDPYGDIWLTDKQPEEHNFSDTKIISLSHLEMTWTNRRNFPALLVRILHKSKLRYYGKPDKKMIEPYQTFLEVADSSGTVSVIMWNALCPEWYKSLRVGLVLLLQDYSVKKSYPFRIQPVPVDPQIKLISTMEICLNLRDPPTNIIIIPEKQVKPEWRLPKLNHRFTTRSELDDMPENCICDVIGLLVFVGRVQRSKKKENREDFWSYRWIHIADGTSEQPFIVELFSTSQPEIFENIYPMAYFVCTQLKVVRNDNQVPKLLYLTTTNESGVFITGHRGQPYTYDAKVKNFIQWIRTKSDSGEQKNMVIGGYYPYPPVPETFSKYSSSIKVESLLTAISEVRKEIEDLQYREQKRIAIQGIITAIKYIPHSSATESASASETLRNANRPSTSQAARVEIQERNGKRHQDDEPVNSQYFQTTSTNLSLSNKIRILQGPHANPVAVPQPGASVQTKGIKPGMPSIFNRRANINANLQGKARKTISDRWESQLWREKKFGLIDHLHYSRVYPESIPRKFMFEHRKFLSDQYNSQPAKYVPPEGRPPKLDDFKSARSLGHFEVTILGLNHEIAIDVAFLPMYCPEDIRTSQIDTLLTSMNYSCAYPQDTTGNDRLPGPRAVAGDIIKAATELDRVHIVGILDICNLGNNKVEVYLHKIYSPENTS
notes: RADX (cxorf57), human; also called MBP-tagged RADX; cxorf57; source: insect cells, purified
For the molecule B4, in data set [2], the “stoichiometry N” value was roughly 2.

B5: mCherry-FLAG-RADX Y849A (natural protein, human, UniProt Q6NSI4 1-855, looked up)
chain: B4 chain with Y849A
notes: RADX, human, full length with one point mutation; also called pTM158; source: HEK293T, purified (anti-FLAG M2 beads, 3x FLAG peptide, Superdex 200)
Turning to B5, in data set [1], the binding result is recorded as “binds”.
